US10617749B1, “Composition of matter and methods for alteration of dendritic cell metabolism to augment cancer vaccine efficacy” (Duke University, priority 2016, dated 2020)
“Also recorded” adds a separate entry of the source.

Experiments:
[1] = test system: DC-induced CD4+ FoxP3+ Tregs; test: In vitro Treg assay; format: cell-based, mouse; settings: for DC-mediated Treg differentiation in vitro: pre-treated DCs co-cultured with naïve CD4+ T cells
Description: In vivo Treg assay. DCs (C57, H-2^b) were pre-treated for 48 hours and delivered by intradermal injection into the footpad of Foxp3-mRFP mice. Draining inguinal and popliteal lymph nodes were resected 5 days later and analyzed for CD4^+ Foxp3^+ Tregs. In vitro Treg assay, DCs (Balb/c, H-2^d) were pre-treated for either 24 or 48 hrs, and re-plated at a 1:3 DC:T-cell ratio with purified naïve Foxp3-mRFP(H-2^b) CD4^+ Tcells. These co-cultures were incubated for 6 days and quantitated for CD4^+ FoxP3^+ Tregs by flow cytometry.
(§1) Murine bone marrow-derived DCs (BMDCs) were harvested and differentiated as previously described and purified using CD11c microbeads (Miltenyi Biotec) according to manufacturer's protocol. DC purity was monitored by flow cytometry and consistently found to be >95% CD11c+F4/80-. BRAFV600EPTEN−/−-Wnt5aKD and BRAFV600EPTEN−/−-NTC cell lines were generated and cultured as previously described. DC2.4, a murine dendritic cell line was kindly provided by Dr. Kenneth L. Rock (University of Massachusetts Medical School), and cultured as previously described. DC2.4β-cateninKD, DC2.4-CPT1AKD, and DC2.4-NTC stable cell lines were generated using a β-catenin-targeted, CPT1A-targeted, or control shRNA-expressing lentivirus followed by puromycin selection. DCs were treated with Wnt3a (100 ng/mL), Wnt5a (200 ng/mL), LPS (1 μg/mL), 1-MT, 2DG (1 mM), or ETO (100 µM) vs vehicle control either for 24 or 48 hrs prior to their use in both in vitro and in vivo experiments.

[2] = test system: bone marrow-derived DCs (BMDCs); test: DC oxygen consumption rate (OCR) / OXPHOS, extracellular flux analysis; format: cell-based, murine; settings: BMDCs treated with the agent alone vs untreated
Description: (§2) DC energy metabolism was measured using the XF^e24 extracellular flux analyzer (Seahorse Bioscience), with the glycolysis stress test kit and the mitochondrial stress test kit as previously described (Everts et al., 2014; Zhao and Klimecki, 2015).
as §1

[3] = test system: bone marrow-derived DCs (BMDCs); test: DC glycolysis, extracellular acidification rate (ECAR); format: cell-based, murine; settings: with or without LPS
Description: as §2, §1

DC intracellular PpIX = test: PpIX flow cytometry analysis; format: cell-based, mouse; settings: 48 hours treatment, then 1 mM δ-ALA 4 hrs
Description: Dendritic cells were terminally incubated in the presence of 1 mM δ-aminolevulinic acid (ALA) for 4 hrs. Intracellular PpIX was analyzed by flow cytometry as previously described (Hryhorenko et al., 1998).

murine DCs = test: qrt-PCR / ELISA gene and cytokine expression in murine DCs; format: cell-based; settings: for PPAR-γ and CPT1A expression: murine primary DCs; for expression of key glycolytic enzymes (phosphofructokinase, hexokinase, pyruvate kinase): primary DCs
Description: Total RNA was isolated by RNeasy Plus Mini Kit(Qiagen). RNA(500 ng) was used in cDNA Synthesis (iScript, BioRad). Quantification of mRNA for genes involved in PPARγ signaling was performed using Mouse PrimePCR PPAR Array according to the manufacturer's protocol (BioRad). Real-time PCR was performed using an ABI7500 Real-Time PCR system (Life Technologies). Data analysis utilized the PrimePCR Analysis Software (BioRad). Conventional qPCR was performed using validated primers (Table 1) and SsoAdvanced Universal SYBR Green Super mix (BioRad) or Taqman probes (Applied Biosystems) for heme synthesis enzymes.
Murine IL-6 (eBioscience) and IL-12p40 (Becton Dickinson) ELISAs were performed according to manufacture's protocol.

[4] = test system: human monocyte-derived DCs; test: OCR analysis of human monocyte-derived DCs; format: cell-based; settings: human monocyte-derived DCs, Wnt5a 48 hours
Description: Human DCs were differentiated from harvested peripheral blood mononuclear cells and pre-treated with Wnt5a 48 hours prior to OCR analysis. Short-term incubation with ETO was performed prior to analysis.
as §2
(§3) Human Monocyte-derived Dendritic Cells were generated as previously described.

[5] = test system: bone marrow-derived DCs (BMDCs); test: Extracellular lactate assay; format: cell-based, murine; settings: BMDC culture media 0-48 hours
Description: L-Lactate levels were measured by lactate dehydrogenase conversion of L-lactate+NAD^+ to pyruvate+NADH following treatment with […] (Pesce et al., 1975). Lactate standards and samples were read at NADH specific absorbance 340 nm.

OT-1 CD8+ T cells = test: T cell proliferation assay; format: cell-based, mouse; settings: SIINFEKL-loaded BMDCs co-incubated with OT-1 splenocytes
Description: Splenocytes of OT-1 mice (H-2^b) were isolated and stained with CellTrace Violet (ThermoFisher). Preconditioned DCs were loaded with ovalbumin peptide SIINFEKL, and co-cultured at a DC:splenocyte ratio of 40,000:120,000 cells for 72 hrs. CD8+ T cell proliferation was measured by the dilution of Cell Trace Violet dye by flow cytometry.

DC IDO = test: IDO enzymatic assay (kynurenine HPLC); format: cell-based, mouse; settings: purified DC cultures, Wnt5a or Wnt5a+ETO
Description: DC IDO enzyme activity was measured by the conversion of L-tryptophan to L-kynurenine in conditioned media by HPLC (Pallotta et al., 2011). Intracellular hemin levels were measured using a colorimetric assay kit (BioVision).

[6] = test system: human monocyte-derived DC; test: PPARγ and CPT1A Western blot in human monocyte-derived DCs; format: cell-based
Description: (§4) Primary antibodies including CPT1A (Cell signaling), PPAR-γ (Santa Cruz Biotechnology), β-catenin, β-actin (Millipore), p-AMPK(T172)/AMPK (Cell signaling), p-AKT(T308)/Akt (Cell Signaling) were used at 1:1000. Secondary antibodies including goat anti-rabbit IgG-HRP (Millipore) and goat anti-mouse IgG-HRP (Millipore) were used at 1:5000. Cells were lysed in Laemmli sample buffer after treatment and subjected to SDS-polyacrylamide gel electrophoresis and immunoblot analysis. For immunoprecipitation, cells were lysed in radio immunoprecipitation assay (RIPA) buffer [10 mM sodium phosphate (pH 8.0), 150 mM NaCl, 1% Triton X-100, 1% sodium deoxycholate, and 0.1% SDS in the presence of 1 mM DTT, 1 mM phenylmethylsulfonylfluoride, and a protease inhibitor cocktail (Sigma)], precleared with protein A beads, and then incubated with 1 μg of antibody against β-catenin or isotype control IgG with protein A-agarose beads on a rotator overnight at 4° C. After 3 washes with RIPA buffer, immunoprecipitated complexes were eluted in sample buffer by boiling and subjected to immunoblot analysis. Immunoblots were visualized by chemiluminescence substrate (ThermoFisher) and imaged by a ChemiDoc XRSplus system (BioRad).
as §3

BMDCs = test: Immunoblot of p-AMPK(T172) and p-AKT(T308) in BMDCs; format: cell-based, murine; settings: Wnt5a 200 ng/mL
Description: All data representative of 3 independent experiments.
as §4

β-catenin-PPAR-γ complex = test: β-catenin co-immunoprecipitation in primary DCs; format: cell-based, murine
Description: as §4

Dendritic Cells = test: BODIPY and fatty acid uptake assay; format: cell-based, murine; settings: TF2-C12 uptake, BODIPY
Description: Dendritic Cells were stained in 0.5 μg/ml BODIPY 493/503 in PBS for 15 min to determine neutral lipid content (Herber et al., 2010). Fatty acid uptake measurement in DCs were performed using a dodecanoic acid fluorescent TF2-C12 fatty acid (Sigma) according to the manufacturer's protocol.

DCs = test: DC ATP generation; format: cell-based; settings: data not shown

Cn1cc(CC(N)C(=O)O)c2ccccc21 (stereo not drawn) [1-MT]
DC-dependent Treg differentiation promoted by melanoma-derived conditioned media ([1]; DCs with BRAFV600E-PTEN−/− conditioned media): only modestly suppressed

O=CC[C@@H](O)[C@H](O)[C@H](O)CO [2-DG, 2-deoxyglucose]
DC-mediated Treg differentiation in vitro [1]: enhancement of DC-dependent Treg expansion; also recorded: enhanced Treg differentiation

NC(=O)c1ncn([C@@H]2O[C@H](CO)[C@@H](O)[C@H]2O)c1N [AICAR]
DC OXPHOS (OCR) [2]: suppresses OXPHOS

Oc1nc(-c2ccc(C(F)(F)F)cc2)nc2c1CSCC2 [XAV939]
DC glycolysis (ECAR) [3]: promote DC glycolysis

CC[C@H]1/C=C/C=C/C[C@@H](C)[C@H](O)[C@@](C)(O)C(=O)[C@@H](C)[C@H](O)[C@@H](C)C(=O)[C@@H](C)[C@H](O)[C@@H](C)/C=C/C(=O)O[C@@H]2[C@H](C)[C@H](CC1)O[C@]1(CC[C@H](C)[C@H](C[C@@H](C)O)O1)[C@H]2C [oligomycin]
DC-mediated Treg differentiation in vitro [1]: potently suppressed Wnt5a induction of DC-mediated Treg differentiation; also recorded: almost complete elimination of these Treg populations

B1: Wnt3a: canonical Wnt ligand used to treat DCs (100 ng/mL) (protein, UniProt P56704 19-352, looked up)
Protein Wnt-3a: SYPIWWSLAVGPQYSSLGSQPILCASIPGLVPKQLRFCRNYVEIMPSVAEGIKIGIQECQHQFRGRRWNCTTVHDSLAIFGPVLDKATRESAFVHAIASAGVAFAVTRSCAEGTAAICGCSSRHQGSPGKGWKWGGCSEDIEFGGMVSREFADARENRPDARSAMNRHNNEAGRQAIASHMHLKCKCHGLSGSCEVKTCWWSQPDFRAIGDFLKDKYDSASEMVVEKHRESRGWVETLRPRYTYFKVPTERDLVYYEASPNFCEPNPETGSFGTRDRTCNVSSHGIDGCDLLCCGRGHNARAERRREKCRCVFHWCCYVSCQECTRVYDVHTCK
DC OXPHOS (OCR) [2]: no changes in either DC OXPHOS or glycosis | DC glycolysis (ECAR) [3]: no changes in either DC OXPHOS or glycosis | DC levels of PpIX (DC intracellular PpIX): failed to enhance PpIX synthesis in DCs | PPAR-γ and CPT1A expression (murine DCs): failed to induce the expression of both PPAR-γ and CPT1A in DCs | expression of key glycolytic enzymes (phosphofructokinase, hexokinase, pyruvate kinase) (murine DCs; qrt-PCR): promotes the expression of key glycolytic enzymes

B2: Wnt5a: Wnt ligand used to treat DCs (200 ng/mL) (protein, UniProt P41221 62-380, looked up)
Protein Wnt-5a: IIGAQPLCSQLAGLSQGQKKLCHLYQDHMQYIGEGAKTGIKECQYQFRHRRWNCSTVDNTSVFGRVMQIGSRETAFTYAVSAAGVVNAMSRACREGELSTCGCSRAARPKDLPRDWLWGGCGDNIDYGYRFAKEFVDARERERIHAKGSYESARILMNLHNNEAGRRTVYNLADVACKCHGVSGSCSLKTCWLQLADFRKVGDALKEKYDSAAAMRLNSRGKLVQVNSRFNSPTTQDLVYIDPSPDYCVRNESTGSLGTQGRLCNKTSEGMDGCELMCCGRGYDQFKTVQTERCHCKFHWCCYVKCKKCTEIVDQFVCK
DC OXPHOS (OCR) [2]: strongly promoting DC OXPHOS; also recorded: promotes DC oxidative phosphorylation (OXPHOS) | OCR [4]: induces OCR in human monocyte-derived DCs | DC glycolysis (ECAR) [3]: inhibits DC glycolysis; also recorded: inhibit LPS-mediated DC glycolysis; also recorded: eliminates the glycolytic reserve of DCs while also significantly suppressing the lipopolysaccharide (LPS)-induced glycolytic surge; also recorded: suppresses LPS-induced DC glycolysis | lactate production [5]: suppress lactate production | DC-mediated antigen-specific CD8+ T cell proliferation (OT-1 CD8+ T cells): suppresses LPS-induced DC-mediated antigen-specific T cell proliferation | DC IDO enzymatic activity (kynurenine) (DC IDO): capable of promoting DC IDO enzymatic activity | DC levels of PpIX (DC intracellular PpIX): enhances DC levels of the PpIX prosthetic group in a manner that depends on the induction of FAO | IL-6 and IL-12 expression in primary DCs (murine DCs; BMDCs, qrt-PCR): suppresses IL-6 and IL-12 expression in primary DCs | expression of ALAS1 and further PpIX/heme synthesis enzymes (murine DCs; DCs, qrt-PCR): upregulate the expression of ALAS1 as well as several additional enzymes involved in PpIX synthesis | PPAR-γ and CPT1A expression (murine DCs): directly induce CPT1a expression in a PPARγ-dependent manner; also recorded: induces the upregulation of PPAR-γ and CPT1A | expression of key glycolytic enzymes (phosphofructokinase, hexokinase, pyruvate kinase) (murine DCs; qrt-PCR): suppresses the expression of key glycolytic enzymes; also recorded: suppress the expression of the key glycolytic enzymes | PPAR-γ and CPT1A expression [6]: induces the upregulation of PPAR-γ and CPT1A | AMPK activation (Thr-172 phospho-AMPK) (BMDCs; 24 and 48 hrs): suppress AMPK activation | DC Akt Thr-308 phosphorylation (BMDCs; 48 hrs): no significant impact | PPAR-γ binding to β-catenin (β-catenin-PPAR-γ complex): PPAR-γ to bind to β-catenin upon Wnt5a stimulation | DC fatty acid uptake and lipid stores (Dendritic Cells): enhance DC fatty acid uptake and lipid stores | DC ATP generation (DCs): no net effect on DC ATP generation
